The numbers were not newly measured in patent US20250197888A1, “NOVEL RECOMBINANT VECTOR AND USE THEREOF” (CELL & BRAIN CO., LTD., priority 2022, published 2025), which cites them from elsewhere.

For this data set the following is noted: A168H mutant; Balzarini et al., 2006.

Consider “mutant HSV-TK: HSV thymidine kinase in which alanine at position 168 is substituted with histidine”, for which the “kinase activity relative to wild-type HSV-TK” value is “about 4 times”.
